Measurements published in the supplement of paper PMC9170038.

System: K4 kissing-loop RNA reporter
Assay: apparent KD of K4 kissing-loop reporter; higher = weaker reporter binding
Conditions: Eterna round: R107
Experimental: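 RNA-MaP round R107: designed RNA switches with theophylline, tryptophan, arginine or FMN aptamers are transcribed on-chip within common flanks. They are titrated with a labelled K4 kissing-loop RNA reporter in RNA-MaP buffer (100 mM Tris pH 7.5, 80 mM KCl, 4 mM MgCl2), without ligand or with the indicated ligand. Median apparent KD per design.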

[1] = input ligand: theophylline 20 uM
[2] = input ligand: tryptophan 2.4 mM
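Further: bound reporter read as fluorescence of individual clusters on recovered sequencing chips by microscopy, with normalized cluster intensities fitted with a binding model.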

Row | Sequence | apparent KD of K4 kissing-loop reporter (input ligand: FMN 200 uM) | apparent KD of K4 kissing-loop reporter (input ligand: arginine 13.2 mM) | apparent KD of K4 kissing-loop reporter (input ligand: none) | apparent KD of K4 kissing-loop reporter [1] | apparent KD of K4 kissing-loop reporter [2]
1 | GGCAGUGAUGUUGCCUAAGCAACGCAUGCGGAGGAUAUUCGUUCGGGAAGAAGGCCGCAGCGUUCUCUCGAGUGAUGUUCGAGUA [Same State FMN A GF 21] | 161 nM | 176 nM | 176 nM | 171 nM | 166 nM
2 | UAAUUUAUGUCUUUAAUUUAAUAAUCAGAUACCAGUGAUUUAUGACACCCUUGGCAGCUGUAUUGAGUGAUGUUCUUAUACUUAA [JR_Nu_ExcTheophyA_Sub021] | 131 nM | 169 nM | 171 nM | 212 nM | 101 nM
3 | UAUUUAUUAACUGAUACCAGACUUAAUGAAUUGUAAAUUACUAGUGAUGUUAGUGAAUCUGUCCCUUGGCAGCAGUAUUUAUUAA [JR_Nu_ExcTheophyB_Sub028] | 111 nM | 169 nM | 128 nM | 170 nM | 85.1 nM
4 | CAGUUCUAUUCCGGUAGUGAUGUUACCAAGCGAGGACCGGUACGGCCGCCACUCGAGUGACAGACGUACUGGUAUCACCCGCUUC | 159 nM | 172 nM | 164 nM | 186 nM | 142 nM
5 | AGAUUCUUUUUUUUAUUUAAGUUUUCAGAAGGAGCGUGGUAGUACACAGGUAGGUCGCUGAAUUUUGGGCUAGUGAUGUUAGUUA [whbob_SS_Arginine_A_sa115] | 180 nM | 188 nM | 221 nM | 231 nM | 135 nM
6 | AGGAUCACGUCAGUGAUGUUGACAAGAGAUACCAGAGACGAAAGUCUCCCUUGGCAGCUCAUCGUGAUCCGUGACAAAGGUCACA [Omei KL hio A SS C v3] | 262 nM | 135 nM | 143 nM | 155 nM | 189 nM
7 | UUACCAAGUGAUGUUUGGAAAUAUCCUAGGCAGGAUAUGCGGAAACGCAGAAGGGCCACCUUAUAGUGAAGGAAACUUCGCUAUU [Ex FMN A 2] | 163 nM | 124 nM | 140 nM | 141 nM | 142 nM
8 | CAUACGCAUGGAGGAUAUGAGAUUACUCAUAUCAUUUAAUAUUCUCAGUGAUGUUGAGAUUUAAACUCAGAAGGCCAUGUGUAUG [Ex FMN B 12] | 262 nM | 331 nM | 358 nM | 356 nM | 380 nM
9 | ACGUAUAUCAGAGGAUAUCGUAUUAAUAUUUUAUCUAUAUAUUAUAGCAGUGAUGUUGCAAUUAUUCGAGAAGGCUGAUUUACGA [JR_SSFMNB_Sub023] | 144 nM | 170 nM | 139 nM | 194 nM | 100 nM
10 | AGGCACGAGCAAGGAUAUCGAGUAGAGUGAUGUUCUGCCUGGGUUGGCGCGUAAGGGCCUUCCCAGCGAGAAGGUGCUCGUGCCU [#2 Same State - FMN A Attempt #12 (HarryS)] | 253 nM | 681 nM | 939 nM | 677 nM | 660 nM
11 | UGAUAGGACAGAAGGAGCGGCAGUGAUGUUGCCAAAAGGUUAAGGUGUCAAAAGACACCCUGCCAGGUAGGUCGCUGUCCUAUCU | 202 nM | 236 nM | 212 nM | 214 nM | 208 nM
